Laboratory results reported in US20090098608A1.

Assays:
[1] = biological target: FLAG-mLangerin.ECD (mouse) (UniProt Q9CS74); experiment: Western blot, purified protein in two-fold dilutions, 1 µg/ml antibody
[2] = biological target: both N-terminal and C-terminal FLAG tagged proteins; experiment: Western blot, serial dilutions
[3] = biological target: FLAG-mSIGN-R1.ECD (mouse) (UniProt Q9CS74); experiment: Western blot, 293T lysate in two-fold dilutions

Row | lowest amount of purified protein detected by Western blot [1] [ng] | times better detection than mAb M2 [2] [times] | fold fewer cells detectable than mAb M2 [3] [fold] | fold lower detectable amount than mAb M2 [1] [fold] | Substance
1 | 100 |  |  |  | mouse anti-FLAG mAb M2 (ANTI-FLAG M2, Sigma-Aldrich) (antibody)
2 | 25 | 2 to 8 | 8 | 4 | rat anti-FLAG mAb L5 (antibody)
